The record followed here is publication doi:10.1101/2024.10.15.618347.

This data set concerns the target YTHDC1 YTH domain (UniProt Q96MU7 345-509). Put plainly: EMSA.

B1: MALAT1 oligo, m6A (ssRNA)
RNA: AACUUAAUGUUUUUGCAUUGGACUUUGAGUU
modifications: m6A at position 22 (GGACU to GG(m6A)CU)
Take B1: the binding result is listed as “binds”.
